Test results as given in the DeepSol protein solubility set.

Experiment: soluble on expression in E. coli; label from the status in PepcDB or PDB records

Sequence	soluble on expression in E. coli
MFTKSCAKATDQNRQELFMDSLLGDFQKMKEKALNQQQERRSKKRELHCKSSEKTKKPNQYAALTHSQVQEVKAKVRTVNDKFHLNAEEKKLWELILLGNQLAQNISSCDLPTDNEDDASLVKLTQIFADETLERTDLTWLNKILKIALYSRGSGFGNCQEKAFFVFALLLHQAQKPESLIHSLRLATFNNHFILIVNEQFLMDPWLNLAFPLSKGNQQLEIGYVFERFGRLVNYFSINQEGQCFTHTVREGGTIERDPSSEKDMANCIHSLLDHRDYFDLSIVSEREIHTNTKRRKYENQEQEVPQPRQETSNQPTETVYTDSSHNTWDNEGAADDFLEHFEQTHPVYNPGFFSFGQDDVGLKPDLPKNLFKF	not soluble
MGSDKIHHHHHHMTDVNASSESRLAALEARVTELEDLNAIRRLQWAYGYYIDYNRPEEVAGLFAKDGAVVFLSGEYVGYEGVMRLYGTWFQNLFTGGRRGPVHGLLLDHFQLQDVITIAPDGQTAKGRFRGILAGGWHDDIVKDKPEGMPQQFWESGIYENDYVKEDGVWKIKRLDYMMQWQADYETGWSKTIAHLQPAAVCFPENPIGPDRLLPETEVRQTWPHRAEVPMSFAHPVLAKAFAVGEFTKLQKKWP	not soluble
MSLTKDILILAVETSCDETSVSVIKNGRDILSNTVLSQIESHKRFGGVVPEVASRHHVEGITTTINEALVDADVSMEDIDAIAVTEGPGLIGALLIGVNAAKALAFAYDKPLIPVHHIAGHIYANHIEEPLTFPLIALIVSGGHTELVYMKDHLSFEVIGETRDDAVGEAYDKVARTIGLNYPGGPQVDRLAAEGEDTYSFPRVWLDKDSYDFSFSGLKSAVINQLHNQRQKNIPIIEANVATSFQNSVVEVLTFKAIQACKEYSVQRLIVAGGVASNKGLRQSLADQCKVNDIQLTIPSPKLCTDNAAMIGVAGHSLYQQGRFADLALNGHSNIDLEEYSAEEGHHHHHH	soluble
MGSDKIHHHHHHNTPREVTLHFLRTAGHPLTRWALQRQPPSPKQLEEEFLKIPSNFVSPEDLDIPGHASKDRYKTILPNPQSRVCLGRAQSQEDGDYINANYIRGYDGKEKVYIATQGPMPNTVSDFWEMVWQEEVSLIVMLTQLREGKEKCVHYWPTEEETYGPFQIRIQDMKECPEYTVRQLTIQYQEERRSVKHILFSAWPDHQTPESAGPLLRLVAEVEESPETAAHPGPIVVHCSAGIGRTGCFIATRIGCQQLKARGEVDILGIVCQLRLDRGGMIQTAEQYQFLHHTLALYAGQLPEEPSP	not soluble
GPGSMPNPLVRLGKELKEATEHPDPDIHLELYDPTKGSDGSRSSQGAALQPSQQQPGLYTWLAILKGPPDTPFAGGSYRLVLSIPHEYPLVPPKAAFITKVFHPNVEFNTGNVCLDILKKRWSPVWTLSSVCRAILNLLAEPESDSPFNCDAGNLLRAGDMEGYASLVRYYAITDAGAPPFADNEE	not soluble
GSYCPRNLHLLPTTDTYLSKVSDDPDNLEDVDDEELNAHLLNEEASKLKERIWIGLNADFLLEQESKRLKQE	soluble
MLKIFNTLTRQKEEFKPIHAGEVGMYVCGITVYDLCHIGHGRTFVAFDVVARYLRFLGYKLKYVRNITDIDDKIIKRANENGESFVAMVDRMIAEMHKDFDALNILRPDMEPRATHHIAEIIELTEQLIAKGHAYVADNGDVMFDVPTDPTYGVLSRQDLDQLQAGARVDVVDDKRNPMDFVLWKMSKEGEPSWPSPWGAGRPGWHIECSAMNCKQLGNHFDIHGGGSDLMFPHHENEIAQSTCAHDGQYVNYWMHSGMVMVDREKMSKSLGNFFTVRDVLKYYDAETVRYFLMSGHYRSQLNYSEENLKQARAALERLYTALRGTDKTVAPAGGEAFEARFIEAMDDDFNTPEAYSVLFDMAREVNRLKAEDMAAANAMASHLRKLSAVLGLLEQEPEAFLQSGAQADDSEVAEIEALIQQRLDARKAKDWAAADAARDRLNEMGIVLEDGPQGTTWRRK	soluble
MNDFLNFTQQKREEPQQLVLIKYPGIVKNVDKALQTMGGLQLISQSHFNNHSLELSHTPDNPYTSRIMAERKPQDNVSSGTLHLVMKVRRKKIDPTKIKTSFLGLVNTVYTFDVMCDFQYLPLKKRVGCDTFEDLIPKLIPTDIASALSWWDASESVATPLFLPPYQFSRYLTPSTKILGRETDHTEKTKNAQKKGYGQNLRVERKALSVTVNAKEEFPLEPSQEAVDEAMFRCKHDEPHRLLRELFDERPMWTRMGLLYRTRIDDSLLRSILQKYAFYILSGPWGRLWCKFGYDPRTDRNGGLYQTIMVSFRQHGSIPERQRLKVSSDRAQTINHTADVSEPVTYMYEPGKLPRIRQMWYCVMDVRLPQAMNELVAVVENNTPPTPEEVRDKGWLPNTLLEKIRDLIKEDVARTSAELEGLMNDTAPGEEEF	not soluble
